# From US12240900 (MEDICOVESTOR, dated 2025)
# Tests used:
# [1] = target: T1, fusion protein containing the extracellular domain of human FRalpha and a polyhistidine tag (human, UniProt P15328 25-233); experiment: ELISA, human FRalpha ECD-His coated
# T1 construct: extracellular domain; Coated on ELISA plates; also called human FRalpha extracellular domain; not shown: polyhistidine tag
# Experimental: (§1) The affinity of each IgG1 for FRalpha was confirmed by ELISA. Briefly, a fusion protein containing the extracellular domain of human FRalpha and a polyhistidine tag was used to coat ELISA plates, which were washed three times with phosphate-buffered saline (PBS) containing 0.1 percent polysorbate 20 (PBST), then blocked with PBS containing 5 percent powdered milk (PBSM), and then washed three more times with PBST. Wells were then incubated with antibodies at varying concentrations for 60 minutes at room temperature in 1 percent PBSM. Wells were then washed three times with PBST, after which the secondary, horseradish-peroxidase-conjugated antibody anti-human-IgG-Fc-HRP (ab97225, Abcam, United Kingdom) was added at a 1:8000 dilution in 1 percent PBSM for 50 minutes at room temperature. The wells were then washed six times with PBST, after which 3,3', 5,5"-tetramethylbenzidine (TMB) was added. The reaction was stopped with 2 molar sulfuric acid, and the TMB diamine product was quantified at 450 nanometers in a plate reader. Results are depicted in FIG. 2.
# [2] = target: T2, fusion protein containing the extracellular domain of cynomolgus FRalpha and a polyhistidine tag (cynomolgus, UniProt A0A2K5U044 25-233); experiment: ELISA, cynomolgus FRalpha ECD-His coated
# T2 construct: extracellular domain; Coated on ELISA plates; also called cynomolgus FRalpha extracellular domain; not shown: polyhistidine tag
# Experimental: as §1
# The ELISA of the preceding paragraph was repeated with a fusion protein containing the extracellular domain of cynomolgus FRalpha and a polyhistidine tag. Results are depicted in FIG. 3.
# [3] = target: T3, human FRalpha expressed on cells (transfected HEK293 cells; SKOV3 human ovarian cancer cells) (human, UniProt P15328 25-234); experiment: flow cytometry on HEK293 cells transfected to express FRalpha
# T3 construct: whole, on cells; also called folate receptor alpha
# Experimental: (§2) The affinity of each antibody was then assessed by flow cytometry. Briefly, HEK293 cells transfected to express FRalpha were washed with fluorescence-activated cell sorting (FACS) buffer, to which the IgGs were added at varying concentrations and incubated at 4 degrees Celsius for 60 minutes. The cells were then centrifuged and washed twice in FACS buffer. A phycoerythrin-labelled anti-human IgG, Fcgamma antibody (109-115-098; Jackson ImmunoResearch, Pennsylvania, United States) was then added to the cells at a 1:200 dilution and incubated at 4 degrees Celsius for 30 minutes. The cells were then washed, resuspended in FACS buffer, and counted by flow cytometry. Results are depicted in FIG. 4.
# [4] = target: T3, human FRalpha expressed on cells …; experiment: flow cytometry on SKOV3 human ovarian cancer cells that express FRalpha
# Experimental: as §2
# The flow cytometry experiment of the preceding paragraph was repeated with a human ovarian cancer cell line that expresses FRalpha, SKOV3. Results are depicted in FIGS. 5A and 5B. […] The antibody according to SEQ ID NO: 3-12 was then designated the lead antibody for further development.
# T3 sequence (P15328 25-234): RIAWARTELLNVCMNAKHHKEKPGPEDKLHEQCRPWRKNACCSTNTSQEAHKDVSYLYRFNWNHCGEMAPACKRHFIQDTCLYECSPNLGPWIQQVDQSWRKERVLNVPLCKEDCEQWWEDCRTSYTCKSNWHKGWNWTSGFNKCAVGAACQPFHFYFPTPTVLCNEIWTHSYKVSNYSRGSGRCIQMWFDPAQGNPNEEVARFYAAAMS
# T1 sequence (P15328 25-233 limits assumed): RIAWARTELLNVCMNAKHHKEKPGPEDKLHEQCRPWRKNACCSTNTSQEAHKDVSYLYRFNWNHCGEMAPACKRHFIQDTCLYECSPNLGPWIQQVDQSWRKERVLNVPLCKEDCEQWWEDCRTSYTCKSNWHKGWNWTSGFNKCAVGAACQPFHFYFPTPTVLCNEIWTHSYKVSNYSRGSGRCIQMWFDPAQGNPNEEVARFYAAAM
# T2 sequence (A0A2K5U044 entry or part of it): as the sequence (P15328 25-233 limits assumed) above, with I2T, W4R, R37K, A146P, H171Y counted along it
EC50 [1],EC50 [2],EC50 [3],EC50 [4],Binder
~0.12 nM,~0.16 nM,~4 nM,,"Mirvetuximab (antibody, V domains shown) VH: QVQLVQSGAEVVKPGASVKISCKASGYTFTGYFMNWVKQSPGQSLEWIGRIHPYDGDTFYNQKFQGKATLTVDKSSNTAHMELLSLTSEDFAVYYCTRYDGSRAMDYWGQGTTVTVSS VL: DIVLTQSPLSLAVSLGQPAIISCKASQSVSFAGTSLMHWYHQKPGQQPRLLIYRASNLEAGVPDRFSGSGSKTDFTLTISPVEAEDAATYYCQQSREYPYTFGGGTKLEIK"
~0.05 nM,~0.06 nM,~5 nM,< 1 nM,"lead fully-human anti-FRalpha IgG1 antibody (antibody according to SEQ ID NO: 3-12) (antibody, V domains shown, Human IgG1 / kappa; also called lead antibody; the anti-FRalpha IgG of this disclosure) VH: EVQLLESGGGLVKPGGSLRLSCAASGFTFSSYTMNWVRQAPGKGLEWVSSISSGGGYIYYADSVKDRFTISRDNAKNSLYLQMNSLRAEDTAVYYCAKGDTIMIISAWGQGTTVTVSS VL: DIQLTQSPSTLSASVGDRVTITCRASQSISSWLAWHQQKPGKAPKLLIYAASSLQNGVPSRFSGSGFGTDFTLTISSLQPEDFATYYCQQASSFPLTFGGGTKVEIKR"
